Experimental data reported in patent publication US20220363757A1 (SYMPHOGEN A S, published 2022).

T1: human LAG-3 domain 1-2 Fc fusion, chimeric construct #22 (mutated region AA 140-142) (human, UniProt P18627 23-266)
T1 construct: not shown: human IgG1 Fc, AA P101-K330
T1 chain: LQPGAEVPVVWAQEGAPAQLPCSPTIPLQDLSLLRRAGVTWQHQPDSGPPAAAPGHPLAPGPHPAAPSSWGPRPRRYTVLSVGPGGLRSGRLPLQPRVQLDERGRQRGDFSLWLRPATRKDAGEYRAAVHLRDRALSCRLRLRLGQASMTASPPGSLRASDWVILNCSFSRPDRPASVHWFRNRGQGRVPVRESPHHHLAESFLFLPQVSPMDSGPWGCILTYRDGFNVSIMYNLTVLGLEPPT

T2: human LAG-3 domain 1-2 Fc fusion, chimeric construct #9 (mutated region AA 66-71) (human, UniProt P18627 23-266)
T2 construct: not shown: human IgG1 Fc, AA P101-K330
T2 chain: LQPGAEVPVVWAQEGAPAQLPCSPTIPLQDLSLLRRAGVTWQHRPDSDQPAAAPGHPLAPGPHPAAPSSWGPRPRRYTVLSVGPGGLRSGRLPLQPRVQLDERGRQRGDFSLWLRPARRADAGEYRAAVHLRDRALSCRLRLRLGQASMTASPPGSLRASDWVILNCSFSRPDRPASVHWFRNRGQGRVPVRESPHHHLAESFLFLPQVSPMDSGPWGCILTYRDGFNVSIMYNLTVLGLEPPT

T3: human LAG-3 domain 1-2 Fc fusion, chimeric construct #2 (mutated region AA 29-30) (human, UniProt P18627 23-266)
T3 construct: not shown: human IgG1 Fc, AA P101-K330
T3 chain: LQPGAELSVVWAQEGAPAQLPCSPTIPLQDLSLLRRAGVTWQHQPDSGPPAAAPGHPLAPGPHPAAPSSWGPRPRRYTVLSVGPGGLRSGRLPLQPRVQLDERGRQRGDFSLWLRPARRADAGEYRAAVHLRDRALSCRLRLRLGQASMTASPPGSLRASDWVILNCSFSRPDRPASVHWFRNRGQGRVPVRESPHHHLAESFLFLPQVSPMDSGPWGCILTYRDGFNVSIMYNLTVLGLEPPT

T4: human LAG-3 domain 1-2 Fc fusion, chimeric construct #4 (mutated region AA 40-47) (human, UniProt P18627 23-266)
T4 construct: not shown: human IgG1 Fc, AA P101-K330
T4 chain: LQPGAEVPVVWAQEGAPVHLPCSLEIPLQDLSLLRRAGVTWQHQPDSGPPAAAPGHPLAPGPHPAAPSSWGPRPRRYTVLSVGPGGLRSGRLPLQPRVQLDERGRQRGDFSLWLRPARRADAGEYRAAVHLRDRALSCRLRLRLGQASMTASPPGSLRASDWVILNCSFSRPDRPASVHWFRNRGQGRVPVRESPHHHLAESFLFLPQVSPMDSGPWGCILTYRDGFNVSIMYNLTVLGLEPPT

T5: human LAG-3 domain 1-2 Fc fusion, chimeric construct #23 (mutated region AA 148-152) (human, UniProt P18627 23-266)
T5 construct: not shown: human IgG1 Fc, AA P101-K330
T5 chain: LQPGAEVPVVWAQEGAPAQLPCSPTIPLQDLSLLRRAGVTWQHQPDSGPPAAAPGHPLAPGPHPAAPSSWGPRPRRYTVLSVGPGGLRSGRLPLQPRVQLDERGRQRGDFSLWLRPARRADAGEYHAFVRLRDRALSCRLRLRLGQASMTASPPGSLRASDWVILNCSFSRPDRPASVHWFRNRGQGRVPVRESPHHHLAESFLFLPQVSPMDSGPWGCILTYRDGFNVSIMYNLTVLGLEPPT

T6: human LAG-3 domain 1-2 Fc fusion, chimeric construct #14 (mutated region AA 88-97) (human, UniProt P18627 23-266)
T6 construct: not shown: human IgG1 Fc, AA P101-K330
T6 chain: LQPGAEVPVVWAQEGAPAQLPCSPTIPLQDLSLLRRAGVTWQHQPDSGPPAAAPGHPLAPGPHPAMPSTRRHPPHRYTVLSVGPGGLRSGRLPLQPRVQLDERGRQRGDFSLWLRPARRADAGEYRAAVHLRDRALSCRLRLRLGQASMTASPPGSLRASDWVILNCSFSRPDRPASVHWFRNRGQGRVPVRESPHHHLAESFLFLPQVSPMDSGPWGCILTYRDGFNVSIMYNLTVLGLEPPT

T7: human LAG-3 domain 1-2 Fc fusion, chimeric construct #15 (mutated region AA 95-100) (human, UniProt P18627 23-266)
T7 construct: not shown: human IgG1 Fc, AA P101-K330
T7 chain: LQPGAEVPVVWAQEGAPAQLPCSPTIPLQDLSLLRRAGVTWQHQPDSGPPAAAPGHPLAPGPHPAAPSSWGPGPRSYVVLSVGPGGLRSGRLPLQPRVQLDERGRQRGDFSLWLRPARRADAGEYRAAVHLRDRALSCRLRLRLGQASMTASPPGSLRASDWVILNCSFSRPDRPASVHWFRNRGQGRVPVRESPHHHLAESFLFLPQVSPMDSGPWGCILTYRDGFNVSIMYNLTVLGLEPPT

T8: human LAG-3 domain 1-2 Fc fusion, chimeric construct #17 (mutated region AA 114-117) (human, UniProt P18627 23-266)
T8 construct: not shown: human IgG1 Fc, AA P101-K330
T8 chain: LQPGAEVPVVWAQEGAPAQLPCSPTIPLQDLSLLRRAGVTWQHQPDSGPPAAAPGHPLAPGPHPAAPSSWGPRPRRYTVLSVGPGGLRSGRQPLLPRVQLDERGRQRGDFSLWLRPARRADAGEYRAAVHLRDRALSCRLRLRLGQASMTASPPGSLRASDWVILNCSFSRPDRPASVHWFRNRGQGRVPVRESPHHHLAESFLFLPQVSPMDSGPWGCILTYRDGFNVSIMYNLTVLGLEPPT

T9: human LAG-3 domain 1-2 Fc fusion, chimeric construct #1 (mutated region AA 23-30) (human, UniProt P18627 31-266)
T9 construct: not shown: human IgG1 Fc, AA P101-K330
T9 sequence: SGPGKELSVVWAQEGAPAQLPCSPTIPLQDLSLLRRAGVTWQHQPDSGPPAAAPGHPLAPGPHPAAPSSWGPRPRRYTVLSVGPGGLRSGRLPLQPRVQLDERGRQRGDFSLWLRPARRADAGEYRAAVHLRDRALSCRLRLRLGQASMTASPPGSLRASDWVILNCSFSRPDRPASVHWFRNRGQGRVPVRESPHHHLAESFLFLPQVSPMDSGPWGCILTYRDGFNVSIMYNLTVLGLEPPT


How the values were obtained:
Assay in all cases: SPR, Fab over captured mutant LAG-3-Fc;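 further: LAG-3 fusion proteins captured on an anti-human IgG Fc sensor chip and read on an IBIS MX96 biosensor, Fab association and dissociation each 15 min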
[1] = target: T1, human LAG-3 domain 1-2 Fc fusion, …
Experimental: (§1) The LAG-3 fusion proteins were immobilized onto a G-a-hu-IgG Fc SensEye® (Ssens BV, The Netherlands) for 15 minutes using a Continuous Flow Microspotter (CFM, Wasatch Microfluidics, Salt Lake City, US). After spotting, the SensEye® was positioned in an IBIS MX96 biosensor and captured proteins were evaluated for binding affinity. […] Fab association was performed for 15 minutes and antigen dissociation was performed for 15 minutes. The recorded binding responses were fitted to a simple Langmuir 1:1 binding model with Scrubber 2 software for calculation of the on-rate (kon or ka), off-rate (koff or kd) and affinity (KD) constants.

[2] = target: T2, human LAG-3 domain 1-2 Fc fusion, …
Experimental: as §1

[3] = target: T3, human LAG-3 domain 1-2 Fc fusion, …
Experimental: as §1

[4] = target: T4, human LAG-3 domain 1-2 Fc fusion, …
Experimental: as §1

[5] = target: T5, human LAG-3 domain 1-2 Fc fusion, …
Experimental: as §1

[6] = target: T6, human LAG-3 domain 1-2 Fc fusion, …
Experimental: as §1

[7] = target: T7, human LAG-3 domain 1-2 Fc fusion, …
Experimental: as §1

[8] = target: T8, human LAG-3 domain 1-2 Fc fusion, …
Experimental: as §1

[9] = target: T9, human LAG-3 domain 1-2 Fc fusion, …
Experimental: as §1

KD mutant/KD wild type [1]	KD mutant/KD wild type [2]	binding result [3]	binding result [4]	binding result [5]	KD mutant/KD wild type [6]	KD mutant/KD wild type [7]	KD mutant/KD wild type [8]	binding result [9]	KD mutant/KD wild type [3]	KD mutant/KD wild type [4]	KD mutant/KD wild type [5]	KD mutant/KD wild type [9]	binding result [6]	binding result [7]	Binder
0.8 fold	1.1 fold	no binding (tested: 300 nM)	no binding (tested: 300 nM)	no binding (tested: 300 nM)	0.7 fold	3.1 fold	0.5 fold	no binding (tested: 300 nM)							Fab fragment of antibody 15572 (Fab, V domains shown, not shown: a dimerising Fc or GST, monomeric Fab made by GingisKHAN digestion of the IgG1) VH: QLQLQESGPGLVKPSETLSLTCTVSGDSISSSSYYWGWIRQPPGKGLEWIGSIFYSGNTYYNPSLKSRVTISVDTSKNQFSLKLSSVTAADTAVYYCAREDDFLTDYYGAFDIWGQGTMVTVSS VL: not shown
0.5 fold	0.7 fold				0.6 fold	1.9 fold	2.6 fold		0.5 fold	0.5 fold	2 fold	0.5 fold			Fab fragment of antibody 15011 (Fab, V domains shown, not shown: a dimerising Fc or GST, monomeric Fab made by GingisKHAN digestion of the IgG1) VH: EVQLLESGGGLVQPGGSLRLSCAASGFDFRSYAMMWVRQAPGKGLEWVGGINGEVGGSNTYYAPAVKGRATISRDNSKNTLYLQMNSLRAEDTAVYYCVKGAGACGICNDDIDAWGQGTLVTVSS VL: SYELTQDPAVSVALGQTVRITCSGAGSYAGSYYYGWHQQKPGQAPVTVIYDNDKRPSNIPDRFSGSSSGNTASLTITGAQAEDEADYYCGSTNDNDDGGLFGSGTKVTVLG
1.3 fold	3.9 fold					6.5 fold	1.4 fold		3.1 fold	3.9 fold	2.5 fold	3.2 fold	no binding (tested: 300 nM)		Fab fragment of antibody 15532 (Fab, V domains shown, not shown: a dimerising Fc or GST, monomeric Fab made by GingisKHAN digestion of the IgG1) VH: QVQLQQWGAGLLRPSETLSLTCAVYGESFSGYYWNWIRQPPGKGLEWIGEINHSGSTNYNPSLKSRVTISVDTSKTQFSLKLSSVTAADTAVYYCARGWDLLDWNDYWNEYWGQGTLVTVSS VL: EIVLTQSPATLSLSPGERATLSCRASQSVSSYLAWYQQKPGQAPRLLIYDASNRATGIPARFSGSGSGTDFTLTISSLEPEDFAVYYCQQRSNWPLTFGGGTKVEIKR
0.6 fold	0.4 fold	no binding (tested: 300 nM)	no binding (tested: 300 nM)				0.5 fold	no binding (tested: 300 nM)			3.5 fold		no binding (tested: 300 nM)	no binding (tested: 300 nM)	Fab fragment of antibody 15431 (Fab, V domains shown, not shown: a dimerising Fc or GST, monomeric Fab made by GingisKHAN digestion of the IgG1) VH: QVQLQQSGPGLVKPSQTLSLTCAISGDSVSSNSAAWNWIRQSPSRGLEWLGRTYYRSKWYNDYAVSVKSRITINPDTSKNQFSLQLNSVTPEDTAVYYCARDDDWNDFDYWGQGTLVTVSS VL: EIVLTQSPATLSLSPGERATLSCRASQSVSSYLAWYQQKPGQAPRLLIYDASNRATGIPARFSGSGSGTDFTLTISSLEPEDFAVYYCQQRSNWPLTFGGGTKVEIKR
